Experiments:
HLA-A*02:12 [1] = test: IEDB peptide-MHC binding, purified MHC/competitive/fluorescence; filed as Kd, often an IC50 or EC50 that approximates it; ≥ and ≤ were set here for values at or beyond the usual limits of such assays
HLA-A*02:11 = test: as above
HLA-A*02:01 [2] = test: as above
HLA-A*02:03 [3] = test: as above
HLA-A*02:19 [4] = test: as above
HLA-A*02:06 = test: as above
HLA-A*02:16 [5] = test: as above
HLA-A*69:01 [6] = test: as above
HLA-A*03:01 [7] = test: as above; conditions: source organism: Vibrio vulnificus YJ016
HLA-A*24:03 [8] = test: as above; conditions: source organism: Vibrio vulnificus YJ016
HLA-A*23:01 [9] = test: as above; conditions: source organism: Vibrio vulnificus YJ016
HLA-A*29:02 [10] = test: as above; conditions: source organism: Vibrio vulnificus YJ016
HLA-B*18:01 [11] = test: as above; conditions: source organism: Vibrio vulnificus YJ016
HLA-B*46:01 [12] = test: as above; conditions: source organism: Vibrio vulnificus YJ016
HLA-B*39:01 [13] = test: as above; conditions: source organism: Vibrio vulnificus YJ016
HLA-B*27:03 [14] = test: as above; conditions: source organism: Vibrio vulnificus YJ016
HLA-B*48:01 = test: as above
HLA-A*02:12 [15] = test: IEDB peptide-MHC binding, purified MHC/direct/fluorescence; filed as Kd, often an IC50 or EC50 that approximates it; ≥ and ≤ were set here for values at or beyond the usual limits of such assays
HLA-A*26:01 = test: as above
HLA-A*02:01 [16] = test: as above
HLA-A*03:01 [17] = test: as above
HLA-A*02:03 [18] = test: as above
HLA-B*18:01 [19] = test: as above
HLA-B*46:01 [20] = test: as above
HLA-A*02:19 [21] = test: as above
HLA-B*15:01 = test: as above
HLA-B*57:01 = test: as above
HLA-A*68:02 = test: as above
HLA-A*02:16 [22] = test: as above
HLA-B*51:01 = test: as above
HLA-B*27:03 [23] = test: as above
HLA-B*15:17 = test: as above
HLA-A*24:03 [24] = test: as above; conditions: source organism: Brucella suis 1330
HLA-A*23:01 [25] = test: as above; conditions: source organism: Brucella suis 1330
HLA-A*29:02 [26] = test: as above; conditions: source organism: Brucella suis 1330
HLA-A*69:01 [27] = test: as above
HLA-B*40:01 = test: IEDB peptide-MHC binding, purified MHC/competitive/fluorescence; filed as Kd, often an IC50 or EC50 that approximates it; ≥ and ≤ were set here for values at or beyond the usual limits of such assays; conditions: source organism: Vaccinia virus L-IPV
HLA-B*35:01 = test: as above; conditions: source organism: Vaccinia virus L-IPV
HLA-B*58:01 = test: IEDB peptide-MHC binding, purified MHC/direct/fluorescence; filed as Kd, often an IC50 or EC50 that approximates it; ≥ and ≤ were set here for values at or beyond the usual limits of such assays; conditions: source organism: Camelpox virus M-96
HLA-B*27:05 = test: as above; conditions: source organism: Camelpox virus M-96
HLA-B*07:02 = test: as above; conditions: source organism: Camelpox virus M-96
HLA-B*39:01 [28] = test: as above; conditions: source organism: Camelpox virus M-96
HLA-A*01:01 = test: as above; conditions: source organism: Camelpox virus M-96
HLA-C*05:01 = test: as above; conditions: source organism: Mycobacterium tuberculosis variant bovis BCG str. Pasteur 1173P2
HLA-C*03:03 = test: as above; conditions: source organism: Mycobacterium tuberculosis variant bovis BCG str. Pasteur 1173P2
[29] = source organism: Human immunodeficiency virus 1
[30] = source organism: Vibrio vulnificus YJ016
[31] = source organism: Vibrio cholerae V52
[32] = source organism: Brucella suis 1330
[33] = source organism: Camelpox virus M-96
[34] = source organism: Mycobacterium tuberculosis variant bovis BCG str. Pasteur 1173P2

FLGKIWSS
Kd (HLA-A*02:12 [1]; [29]): 0.0005 µM | Kd (HLA-A*02:11; [29]): ≤ 0.0001 µM | Kd (HLA-A*02:01 [2]; [29]): 0.0075 µM | Kd (HLA-A*02:03 [3]; [29]): 0.00138 µM | Kd (HLA-A*02:19 [4]; [29]): 0.00233 µM | Kd (HLA-A*02:06; [29]): ≤ 0.0001 µM | Kd (HLA-A*02:16 [5]; [29]): ≤ 0.0001 µM | Kd (HLA-A*69:01 [6]; [29]): ≥ 5 µM

HTSALSLGY
Kd (HLA-A*02:12 [1]; [30]): ≥ 20 µM | Kd (HLA-A*02:11; [30]): ≥ 20 µM | Kd (HLA-A*02:01 [2]; [30]): ≥ 20 µM | Kd (HLA-A*03:01 [7]): 0.0179 µM | Kd (HLA-A*24:03 [8]): ≥ 20 µM | Kd (HLA-A*02:03 [3]; [30]): ≥ 20 µM | Kd (HLA-A*23:01 [9]): ≥ 20 µM | Kd (HLA-A*29:02 [10]): ≤ 0.0001 µM | Kd (HLA-B*18:01 [11]): ≥ 20 µM | Kd (HLA-B*46:01 [12]): ≥ 20 µM | Kd (HLA-A*02:19 [4]; [30]): ≥ 20 µM | Kd (HLA-B*39:01 [13]): ≥ 20 µM | Kd (HLA-A*02:16 [5]; [30]): ≥ 20 µM | Kd (HLA-B*27:03 [14]): ≥ 20 µM | Kd (HLA-A*69:01 [6]; [30]): ≥ 20 µM

KRAAAGIMK
Kd (HLA-B*48:01; source organism: Dengue virus 2 Thailand/NGS-C/1944): ≥ 20 µM

LPYPVLLKI
Kd (HLA-A*02:12 [15]; [31]): ≥ 20 µM | Kd (HLA-A*26:01; [31]): ≥ 20 µM | Kd (HLA-A*02:01 [16]; [31]): ≥ 20 µM | Kd (HLA-A*03:01 [17]; [31]): ≥ 20 µM | Kd (HLA-A*02:03 [18]; [31]): ≥ 20 µM | Kd (HLA-B*18:01 [19]; [31]): ≥ 20 µM | Kd (HLA-B*46:01 [20]; [31]): ≥ 20 µM | Kd (HLA-A*02:19 [21]; [31]): ≥ 20 µM | Kd (HLA-B*15:01; [31]): ≥ 20 µM | Kd (HLA-B*57:01; [31]): ≥ 20 µM | Kd (HLA-A*68:02; [31]): ≥ 20 µM | Kd (HLA-A*02:16 [22]; [31]): ≥ 20 µM | Kd (HLA-B*51:01; [31]): 0.054 µM | Kd (HLA-B*27:03 [23]; [31]): ≥ 20 µM

MHCDFAFWV
Kd (HLA-B*15:17; [32]): ≥ 20 µM | Kd (HLA-A*02:12 [15]; [32]): ≥ 20 µM | Kd (HLA-A*26:01; [32]): ≥ 20 µM | Kd (HLA-A*02:01 [16]; [32]): ≥ 20 µM | Kd (HLA-A*03:01 [17]; [32]): ≥ 20 µM | Kd (HLA-A*24:03 [24]): ≥ 20 µM | Kd (HLA-A*02:03 [18]; [32]): ≥ 20 µM | Kd (HLA-A*23:01 [25]): ≥ 20 µM | Kd (HLA-A*29:02 [26]): ≥ 20 µM | Kd (HLA-B*18:01 [19]; [32]): ≥ 20 µM | Kd (HLA-B*46:01 [20]; [32]): ≥ 20 µM | Kd (HLA-A*02:19 [21]; [32]): ≥ 20 µM | Kd (HLA-B*15:01; [32]): ≥ 20 µM | Kd (HLA-B*57:01; [32]): ≥ 20 µM | Kd (HLA-A*68:02; [32]): ≥ 20 µM | Kd (HLA-A*02:16 [22]; [32]): ≥ 20 µM | Kd (HLA-B*51:01; [32]): ≥ 20 µM | Kd (HLA-B*27:03 [23]; [32]): ≥ 20 µM | Kd (HLA-A*69:01 [27]; [32]): ≥ 20 µM

RRLRTLVLA
Kd (HLA-B*48:01; source organism: Tick-borne encephalitis virus): ≥ 20 µM

SHEQGDIAL
Kd (HLA-B*48:01; source organism: Vaccinia virus L-IPV): ≥ 20 µM | Kd (HLA-B*40:01): ≥ 20 µM | Kd (HLA-B*35:01): 2.3 µM | Kd (HLA-B*15:17; [33]): ≥ 20 µM | Kd (HLA-B*58:01): ≥ 20 µM | Kd (HLA-B*27:05): ≥ 20 µM | Kd (HLA-B*07:02): ≥ 20 µM | Kd (HLA-A*02:01 [16]; [33]): ≥ 20 µM | Kd (HLA-B*18:01 [19]; [33]): ≥ 20 µM | Kd (HLA-B*39:01 [28]): 0.0925 µM | Kd (HLA-B*15:01; [33]): ≥ 20 µM | Kd (HLA-B*57:01; [33]): ≥ 20 µM | Kd (HLA-A*68:02; [33]): ≥ 20 µM | Kd (HLA-A*01:01): ≥ 20 µM | Kd (HLA-A*69:01 [27]; [33]): ≥ 20 µM

YLAEGHACL
Kd (HLA-A*02:12 [1]; [34]): 0.0026 µM | Kd (HLA-A*02:11; [34]): ≤ 0.001 µM | Kd (HLA-A*02:03 [3]; [34]): ≤ 0.001 µM | Kd (HLA-A*02:19 [4]; [34]): 0.0033 µM | Kd (HLA-A*02:06; [34]): ≤ 0.001 µM | Kd (HLA-A*02:16 [5]; [34]): ≤ 0.001 µM | Kd (HLA-A*69:01 [6]; [34]): 0.378 µM | Kd (HLA-C*05:01): 0.151 µM | Kd (HLA-C*03:03): 0.002 µM

From the Immune Epitope Database (IEDB)
